Biological target: Gin4p kinase domain (codons 1-294), DBD fusion (S. cerevisiae) (UniProt Q12263)
Experiment: two-hybrid

Sequence of UniProt Q12263 (Q12263 1-294): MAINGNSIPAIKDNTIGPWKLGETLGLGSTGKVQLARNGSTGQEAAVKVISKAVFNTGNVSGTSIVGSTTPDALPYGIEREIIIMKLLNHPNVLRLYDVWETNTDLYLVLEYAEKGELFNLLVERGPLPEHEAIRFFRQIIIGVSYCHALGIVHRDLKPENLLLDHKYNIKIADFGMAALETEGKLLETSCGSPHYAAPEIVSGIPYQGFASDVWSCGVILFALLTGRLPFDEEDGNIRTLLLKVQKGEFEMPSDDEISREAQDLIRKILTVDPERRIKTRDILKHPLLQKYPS

units of β-galactosidase activity (units of β-galactosidase activity): 727
Substance: COOH-terminal region of Cdc3p (the 101 COOH-terminal amino acids), AD fusion (domain or fragment)
